Data on seven variants can be found in paper PMC4912689, “The Extracellular Surface of the GLP-1 Receptor Is a Molecular Trigger for Biased Agonism” (Cell, 2016).

First the molecules themselves.
B1: unnamed (parent)
chain 1: HSQGTFTSDYSKYLDSRRAQDFVQWLMNTKRNRNNIA
chain 2: RPQGATVSLWETVQKWREYRRQCQRSLTEDPPPATDLFCNRTFDEYACWPDGEPGSFVNVSCPWYLPWASSVPQGHVYRFCTAEGLWLQKDNSSLPWRDLSECEESKRGERSSPEEQLLFLYIIYTVGYALSFSALVIASAILLGFRHLHCTRNYIHLNLFASFILRALSVFIKDAALKWMYSTAAQQHQWDGLLSYQDSLSCRLVFLLMQYCVAANYYWLLVEGVYLYTLLAFSVLSEQWIFRLYVSIGWGVPLLFVVPWGIVKYLYEDEGCWTRNSNMNYWLIIRLPILFAIGVNFLIFVRVICIVVSKLKANLMCKTDIKCRLAKSTLTLIPLLGTHEVIFAFVMDEHARGTLRFIKLFTELSFTSFQGLMVAILYCFVNNEVQLEFRKSWERWRLEHLHIQRDSSMKPLKCPTSSLSSGATAGSSMYTATCQASCS

Variants of B1 are the subject of this assay. Kind of assay: radioligand inhibition binding (competition with 125I-exendin-4(9-39)). Conditions: read off a plot.
chain 2 RPQGATVSLWETVQKWREYRRQCQRSLTEDPPPATDLFCNRTFDEYACWPDGEPGSFVNVSCPWYLPWASSVPQGHVYRFCTAEGLWLQKDNSSLPWRDLSECEESKRGERSSPEEQLLFLYIIYTVGYALSFSALVIASAILLGFRHLHCTRNYIHLNLFASFILRALSVFIKDAALKWMYSTAAQQHQWDGLLSYQDSLSCRLVFLLMQYCVAANYYWLLVEGVYLYTLLAFSVLSEQWIFRLYVSIGWGVPLLFVVPWGIVKYLYADEGCWTRNSNMNYWLIIRLPILFAIGVNFLIFVRVICIVVSKLKANLMCKTDIKCRLAKSTLTLIPLLGTHEVIFAFVMDEHARGTLRFIKLFTELSFTSFQGLMVAILYCFVNNEVQLEFRKSWERWRLEHLHIQRDSSMKPLKCPTSSLSSGATAGSSMYTATCQASCS [chain 2 E269A]: the log10 ratio was -1.3 ΔpKi.
As for chain 2 RPQGATVSLWETVQKWREYRRQCQRSLTEDPPPATDLFCNRTFDEYACWPDGEPGSFVNVSCPWYLPWASSVPQGHVYRFCTAEGLWLQKDNSSLPWRDLSECEESKRGERSSPEEQLLFLYIIYTVGYALSFSALVIASAILLGFRHLHCTRNYIHLNLFASFILRALSVFIKDAALKWMYSTAAQQHQWDGLLSYQDSLSCRLVFLLMQYCVAANYYWLLVEGVYLYTLLAFSVLSEQWIFRLYVSIGWGVPLLFVVPWGIVKYLYEDAGCWTRNSNMNYWLIIRLPILFAIGVNFLIFVRVICIVVSKLKANLMCKTDIKCRLAKSTLTLIPLLGTHEVIFAFVMDEHARGTLRFIKLFTELSFTSFQGLMVAILYCFVNNEVQLEFRKSWERWRLEHLHIQRDSSMKPLKCPTSSLSSGATAGSSMYTATCQASCS [chain 2 E271A], the log10 ratio is -0.15 ΔpKi.
Consider chain 2 RPQGATVSLWETVQKWREYRRQCQRSLTEDPPPATDLFCNRTFDEYACWPDGEPGSFVNVSCPWYLPWASSVPQGHVYRFCTAEGLWLQKDNSSLPWRDLSECEESKRGERSSPEEQLLFLYIIYTVGYALSFSALVIASAILLGFRHLHCTRNYIHLNLFASFILRALSVFIKDAALKWMYSTAAQQHQWDGLLSYQDSLSCRLVFLLMQYCVAANYYWLLVEGVYLYTLLAFSVLSEQWIFRLYVSIGWGVPLLFVVPWGIVKYLYEDEGCWTRNSNMNYWLIIRLPILFAIGVNFLIFVRVICIVVSKLKANLMCKTDIKCRLAKSTLTLIPLLGTHEVIFAFVMAEHARGTLRFIKLFTELSFTSFQGLMVAILYCFVNNEVQLEFRKSWERWRLEHLHIQRDSSMKPLKCPTSSLSSGATAGSSMYTATCQASCS [chain 2 D349A], for which the log10 ratio is -0.3 ΔpKi.
As to chain 2 RPQGATVSLWETVQKWREYRRQCQRSLTEDPPPATDLFCNRTFDEYACWPDGEPGSFVNVSCPWYLPWASSVPQGHVYRFCTAEGLWLQKDNSSLPWRDLSECEESKRGERSSPEEQLLFLYIIYTVGYALSFSALVIASAILLGFRHLHCTRNYIHLNLFASFILRALSVFIKDAALKWMYSTAAQQHQWDGLLSYQDSLSCRLVFLLMQYCVAANYYWLLVEGVYLYTLLAFSVLSEQWIFRLYVSIGWGVPLLFVVPWGIVKYLYEAEGCWTRNSNMNYWLIIRLPILFAIGVNFLIFVRVICIVVSKLKANLMCKTDIKCRLAKSTLTLIPLLGTHEVIFAFVMDEHARGTLRFIKLFTELSFTSFQGLMVAILYCFVNNEVQLEFRKSWERWRLEHLHIQRDSSMKPLKCPTSSLSSGATAGSSMYTATCQASCS [chain 2 D270A], the log10 ratio is -1 ΔpKi.
For chain 2 RPQGATVSLWETVQKWREYRRQCQRSLTEDPPPATDLFCNRTFDEYACWPDGEPGSFVNVSCPWYLPWASSVPQGHVYRFCTAEGLWLQKDNSSLPWRDLSECEESKRGERSSPEEQLLFLYIIYTVGYALSFSALVIASAILLGFRHLHCTRNYIHLNLFASFILRALSVFIKDAALKWMYSTAAQQHQWAGLLSYQDSLSCRLVFLLMQYCVAANYYWLLVEGVYLYTLLAFSVLSEQWIFRLYVSIGWGVPLLFVVPWGIVKYLYEDEGCWTRNSNMNYWLIIRLPILFAIGVNFLIFVRVICIVVSKLKANLMCKTDIKCRLAKSTLTLIPLLGTHEVIFAFVMDEHARGTLRFIKLFTELSFTSFQGLMVAILYCFVNNEVQLEFRKSWERWRLEHLHIQRDSSMKPLKCPTSSLSSGATAGSSMYTATCQASCS [chain 2 D192A], the log10 ratio is -0.2 ΔpKi.
As for chain 2 RPQGATVSLWETVQKWREYRRQCQRSLTEDPPPATDLFCNRTFDEYACWPDGEPGSFVNVSCPWYLPWASSVPQGHVYRFCTAEGLWLQKDNSSLPWRDLSECEESKRGERSSPEEQLLFLYIIYTVGYALSFSALVIASAILLGFRHLHCTRNYIHLNLFASFILRALSVFIKDAALKWMYSTAAQQHQWDGLLSYQDSLSCRLVFLLMQYCVAANYYWLLVEGVYLYTLLAFSVLSEQWIFRLYVSIGWGVPLLFVVPWGIVKYLYEDEGAWTRNSNMNYWLIIRLPILFAIGVNFLIFVRVICIVVSKLKANLMCKTDIKCRLAKSTLTLIPLLGTHEVIFAFVMDEHARGTLRFIKLFTELSFTSFQGLMVAILYCFVNNEVQLEFRKSWERWRLEHLHIQRDSSMKPLKCPTSSLSSGATAGSSMYTATCQASCS [chain 2 C273A], the figure is 0.4 ΔpKi; as for chain 2 RPQGATVSLWETVQKWREYRRQCQRSLTEDPPPATDLFCNRTFDEYACWPDGEPGSFVNVSCPWYLPWASSVPQGHVYRFCTAEGLWLQKDNSSLPWRDLSECEESKRGERSSPEEQLLFLYIIYTVGYALSFSALVIASAILLGFRHLHCTRNYIHLNLFASFILRALSVFIKDAALKWMYSTAAQQHQWDGLLSYQASLSCRLVFLLMQYCVAANYYWLLVEGVYLYTLLAFSVLSEQWIFRLYVSIGWGVPLLFVVPWGIVKYLYEDEGCWTRNSNMNYWLIIRLPILFAIGVNFLIFVRVICIVVSKLKANLMCKTDIKCRLAKSTLTLIPLLGTHEVIFAFVMDEHARGTLRFIKLFTELSFTSFQGLMVAILYCFVNNEVQLEFRKSWERWRLEHLHIQRDSSMKPLKCPTSSLSSGATAGSSMYTATCQASCS [chain 2 D199A], -0.25 ΔpKi.
